For the assay, the target named is pHrodo-labeled 4RON human tau P301L soluble oligomer (human), P10636. The assay can be described thus: cell-based or functional assay.
pHrodo-labeled 4RON human tau P301L soluble oligomer (human), P10636, sequence (P10636 other isoform, or with tags, fused parts or gaps P301L P301L): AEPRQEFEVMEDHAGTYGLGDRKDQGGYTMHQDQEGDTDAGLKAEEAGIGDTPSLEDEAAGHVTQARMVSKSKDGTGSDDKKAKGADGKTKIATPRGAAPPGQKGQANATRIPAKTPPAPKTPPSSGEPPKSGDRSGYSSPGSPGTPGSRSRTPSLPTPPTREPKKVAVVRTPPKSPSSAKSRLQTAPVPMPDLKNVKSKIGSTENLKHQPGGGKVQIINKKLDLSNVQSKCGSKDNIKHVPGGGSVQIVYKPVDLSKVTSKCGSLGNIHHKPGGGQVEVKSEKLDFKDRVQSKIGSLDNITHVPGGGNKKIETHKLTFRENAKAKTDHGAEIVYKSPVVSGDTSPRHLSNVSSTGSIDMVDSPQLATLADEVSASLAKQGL

B1: mouse 3D6 (antibody, V domains shown)
VH: EVQLQQSGADLVRPGALVKLSCKASGFNIKDYYLHWVRQRPEQGLEWIGWIDPENGDTVYDPKFQGKATITADTSSNTAYLQLGSLTSEDTAVYFCSTLDFWGQGTTLTVSS
VL: not shown
modifications: here or on the partner: labeled with pHrodo Red succinimidyl ester (sites not given)
Turning to B1, the IC50 of inhibition of tau internalization into B103 neuroblastoma cells (pHrodo Texas Red mean fluorescence intensity, FACS) is 9 nM.
